Data taken from PMC5610937 (Journal of molecular biology, 2017).

Experiments:
[1] = target: Fc-hROR2 protein (Homo sapiens (Human)., UniProt Q01974); assay: SPR
[2] = target: mouse ROR2 extracellular domains displayed on HEK293F cells (Mus musculus (Mouse)., UniProt Q9Z138); assay: flow cytometry on cells
[3] = target: human ROR1 ectopically and stably expressed on mouse pre-B cell line 63-12 (Homo sapiens (Human)., UniProt Q01973); assay: flow cytometry on cells
[4] = target: human ROR2 on the Retrogenix HEK293 cell microarray (Homo sapiens (Human)., UniProt Q01974); assay: Retrogenix cell microarray

mouse ROR2 extracellular domains displayed on HEK293F cells, sequence (Q9Z138 34-403): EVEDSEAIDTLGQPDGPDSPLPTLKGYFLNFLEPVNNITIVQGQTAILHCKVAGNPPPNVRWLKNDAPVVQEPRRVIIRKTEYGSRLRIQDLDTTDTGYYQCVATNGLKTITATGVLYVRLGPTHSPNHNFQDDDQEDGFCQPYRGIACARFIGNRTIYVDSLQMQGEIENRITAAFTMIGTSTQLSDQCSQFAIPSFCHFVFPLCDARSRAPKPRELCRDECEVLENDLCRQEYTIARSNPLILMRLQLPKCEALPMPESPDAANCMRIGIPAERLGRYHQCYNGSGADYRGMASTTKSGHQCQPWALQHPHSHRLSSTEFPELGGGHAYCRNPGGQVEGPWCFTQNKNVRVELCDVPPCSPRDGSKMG

Row | Kd [1] | binding result [2] | binding result [3] | binding result [4] | Binder
1 | 43.3 nM | binds | no binding | – | chimeric rabbit/human anti-human ROR2 Fab ERR2-TOP35 (Fab, V domains shown) VH: QSVKESEGGLFKPMDTLTLTCTVSGFSLNTYGVSWVRQAPGNGLEWIGAVGSSGATNYASWAKSRSTITRNTNENTVTLKMTSLTAADTATYFCARDGYYSSGWGPYFSIWGPGTLVTVSS VL: SFVLTQPASVQVNLGQTVSLTCTAETLRSSYASWYQQKPGQAPVLLIYRDTSRPSGVPDRFSGSSSGNTATLTISGAQAGDEADYYCATSDGSGSRYYVFGGGTQLTVT
2 | – | – | – | no binding (tested: 2 μg/mL) | XBR1-402 in chimeric rabbit/human IgG1 format (antibody, V domains shown) VH: QEQQKESGGGLFKPTDTLTLTCTASGFDISSYYMSWVRQAPGNGLEWIGAIGISGNAYYASWAKSRSTITRNTNLNTVTLKMTSLTAADTATYFCARDHPTYGMDLWGPGTLVTVSS VL: SYELTQLPSVSVSLGQTARITCEGNNIGSKAVHWYQQKPGLAPGLLIYDDDERPSGVPDRFSGSNSGDTATLTISGAQAGDEADYYCQVWDSSAYVFGGGTQLTVT
